Test [1] addresses human thrombin (human).
Test [2] concerns the target human thrombin (human). The source holds these as a separate data set.

Turning to “Serp-1, secreted myxoma viral serpin (recombinant) (from UniProt P12393 1-369) (natural protein)”, the inhibition of thrombin (0.125 NIH units) by Serp-1 at 500 ng over 1 to 20 minutes, no heparin, discontinuous chromogenic assay in test [1] turned out to be 86%. For the same substance, in test [2], the inhibition of thrombin activity (chromogenic substrate S-2238), 19 ng Serp-1 in the presence of heparin (0.2 IU), thrombin 0.002 NIH units came out at 75%; the inhibition of thrombin activity (chromogenic substrate S-2238), no heparin, thrombin 0.002 NIH units, Serp-1 1250, 600 and 300 ng (75%, 65%, 25%); no inhibition at or below 150 ng was found to be 75%.
